Data published in patent US20200222503A1.
Each block holds one substance with its values, some of them ahead of it.

Legend:
FcRn = assay: SPR
FcγR1A = assay: SPR
[1] = target: FcRn-His (Example 11) (Mus musculus (Mouse)) (UniProt Q61559); assay: SPR, BioRad ProteOn XPR 360, His-tagged target on chip
[2] = target: OX40-His (Example 11) (Mus musculus (Mouse)) (UniProt P47741); assay: as above
mPD-L1-His (murine) = mPD-L1-His (murine) (UniProt Q9EP73); assay: as above
[3] = target: PD-L2-His (Example 11) (Mus musculus (Mouse)) (UniProt Q9WUL5); assay: as above
Chain of PD-L2-His (Example 11) (Mus musculus (Mouse)) (Q9WUL5 20-221 limits assumed, form in doubt): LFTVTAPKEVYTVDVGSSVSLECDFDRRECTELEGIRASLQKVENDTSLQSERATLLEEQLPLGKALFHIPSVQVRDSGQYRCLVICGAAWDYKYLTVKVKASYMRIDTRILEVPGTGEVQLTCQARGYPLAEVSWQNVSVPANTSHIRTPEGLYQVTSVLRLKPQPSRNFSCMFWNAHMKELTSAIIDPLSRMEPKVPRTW

Chain of PD1-Fc (recombinant control protein, Example 11) (Fc fusion) (Q02242 25-169): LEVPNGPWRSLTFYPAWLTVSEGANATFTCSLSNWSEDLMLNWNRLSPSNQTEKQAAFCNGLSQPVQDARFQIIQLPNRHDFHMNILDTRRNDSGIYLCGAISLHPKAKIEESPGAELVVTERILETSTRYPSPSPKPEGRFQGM
Chain of mPD-L1-His (murine) (Q9EP73 19-238 limits assumed): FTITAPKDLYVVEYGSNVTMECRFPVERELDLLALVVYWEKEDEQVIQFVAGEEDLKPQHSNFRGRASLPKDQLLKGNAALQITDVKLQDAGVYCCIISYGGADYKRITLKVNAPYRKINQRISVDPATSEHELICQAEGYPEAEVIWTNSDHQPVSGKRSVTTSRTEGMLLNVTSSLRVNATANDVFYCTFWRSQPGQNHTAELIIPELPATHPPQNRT
Chain of OX40L-Fc (recombinant control protein, Example 11) (Fc fusion) (P43488 51-198): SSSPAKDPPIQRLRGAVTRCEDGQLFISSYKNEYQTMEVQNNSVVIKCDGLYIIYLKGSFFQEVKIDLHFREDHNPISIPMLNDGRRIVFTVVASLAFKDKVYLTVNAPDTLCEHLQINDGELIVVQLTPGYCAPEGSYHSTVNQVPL
Chain of OX40-His (Example 11) (Mus musculus (Mouse)) (P47741 20-211 limits assumed, form in doubt): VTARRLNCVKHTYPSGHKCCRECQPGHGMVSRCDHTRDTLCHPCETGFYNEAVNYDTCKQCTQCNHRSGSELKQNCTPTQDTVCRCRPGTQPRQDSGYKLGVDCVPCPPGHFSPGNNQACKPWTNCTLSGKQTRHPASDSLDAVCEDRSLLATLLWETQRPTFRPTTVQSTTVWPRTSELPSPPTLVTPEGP

Kd (FcRn): 4.87 nM | Kd (FcγR1A): 17.7 nM
Substance: IgG1

Kd [1]: 8.08 nM | koff [1]: 0.0242 s⁻¹ | kon [1]: 3e+06 M⁻¹ s⁻¹
Substance: IgG2A (control protein, Example 11) (antibody)

Kd [2]: 1.06 nM | koff [2]: 0.000712 s⁻¹ | kon [2]: 674000 M⁻¹ s⁻¹
Substance: OX40L-Fc (recombinant control protein, Example 11) (Fc fusion)

Kd (mPD-L1-His (murine)): 33.3 nM | koff (mPD-L1-His (murine)): 0.00108 s⁻¹ | kon (mPD-L1-His (murine)): 32400 M⁻¹ s⁻¹ | Kd [3]: 23.1 nM | koff [3]: 0.00171 s⁻¹ | kon [3]: 47900 M⁻¹ s⁻¹
Substance: PD1-Fc (recombinant control protein, Example 11) (Fc fusion)
